{
  "source": "paper PMC3458112",
  "about": "“The VP3 Factor from Viruses of Birnaviridae Family Suppresses RNA Silencing by Binding Both Long and Small RNA Duplexes” (PLoS ONE, 2012)",
  "molecules": {"B1": {"name": "6xHis-tagged full-length IBDV VP3 (wild type) (natural protein)", "chain": "ASEFKETPELESAVRAMEAAANVDPLFQSALSVFMWLEENGIVTDMANFALSDPNAHRMRNFLANAPQAGSKSQRAKYGTAGYGVEARGPTPEEAQREKDTRISKKMETMGIYFATPEWVALNGHRGPSPGQVKYWQNKREIPDPNEDYLDYVHAEKSRLASEEQILRAATSIYGAPGQAEPPQAFIDEVAKVYEINHGRGPNQEQMKDLLLTAMEMKHRNPRRALPKPKPKPNAPTQRPPGRLGRWIRTVSDEDLE", "notes": "VP3 of Infectious bursal disease virus (IBDV), the cut product of the viral polyprotein (pVP2-VP4-VP3); numbers count on: the VP3 polypeptide itself (C-terminal region printed as 222-258), not the polyprotein; also called VP3 WT; wild type IBDV VP3"}},
  "experiment_in_all_cases": "SEC; analytical gel filtration of affinity-purified 6xHis-tagged VP3s, Superdex-200 5/150 calibrated with catalase, serum albumin, ovoalbumine and chymotrypsinogen A; 20 mM Tris-HCl pH 7.5, 150 mM NaCl, 4°C, 0.5 ml/min",
  "key": {"[1]": {"target": "6xHis-tagged IBDV VP3 Patch1 mutant (K99D, R102D, K105D, K106D) (Infectious bursal disease virus (IBDV))"}, "[2]": {"target": "6xHis-tagged IBDV VP3 Patch2 mutant (R159D, R168D, H198D, R200D) (Infectious bursal disease virus (IBDV))"}, "[3]": {"target": "the molecule itself"}},
  "data": [
    {"molecule": "6xHis-tagged IBDV VP3 Patch1 mutant (K99D, R102D, K105D, K106D) (natural protein)", "values": [
      {"measurement": "stoichiometry N", "setting": "[1]", "value": 2}
    ]},
    {"molecule": "6xHis-tagged IBDV VP3 Patch2 mutant (R159D, R168D, H198D, R200D) (natural protein)", "values": [
      {"measurement": "stoichiometry N", "setting": "[2]", "value": 2}
    ]},
    {"molecule": "B1", "values": [
      {"measurement": "stoichiometry N", "setting": "[3]", "value": 2}
    ]}
  ]
}
